The test system of one assay is GLI3. The assay is described as follows: In vitro kinase assay, phosphorylation of GLI3. It is filed as biochemical. The following applies: FLAG-tagged GLI3 immunoprecipitated from HEK293 cells. Here is the method: (§1) HEK293 cells were transfected with 13.5 μg of FLAG-tagged constructs expressed GLI1, GLI2, GLI3, ULK3, ULK3(K44R), ULK3(K139R) or FLAG-CMV-4 empty vector on 10 cm plates. The cells were lysed with 0.5 ml of Lysis Buffer (50 mM Tris HCl, pH 7.4, 150 mM NaCl, 1 mM EDTA, 1% Triton X-100) containing protease inhibitor cocktail (PIC) (Roche Applied Science). The lysates were centrifuged for 15 min at 4° C. and 15000 g, and the supernatants were used for immunoprecipitation (IP). IP was performed using anti-FLAG-M2 affinity gel (Sigma-Aldrich) in batch format according to the manufacture's instructions. Immune complexes were washed three times with 500 μl of Kinase Buffer (KB) (50 mM HEPES, pH 7.4, 20 mM MgCl2, 25 μM ATP) and resuspended in 12.5 μl of KB. One fifth of the immuno-complexes was subjected to WB and the rest was used for the kinase assay.
(§2) Kinase reactions were carried out in KB in a total volume of 20 μl of in the presence of 1 μCi of [γ-^32P]ATP per reaction. We used 1 μl of the immunoprecipitated ULK3, ULK3(K44R) or ULK3(K139R) mixed with 5 μl of the GLI-M2 immunocomplexes or 5 μl of bacterially expressed and purified His-GLI1 fragments. Kinase reactions were held at 30° C. for 30 min and terminated by adding of 5 μl of 4× Laemmli Sample Buffer. Proteins were resolved by SDS-PAGE. […]

The next assay deals with GLI1. The assay is described as follows: In vitro kinase assay, phosphorylation of GLI1. It is filed as biochemical, human. Here is the method: Three overlapping human GLI1 domains corresponding to amino acids 1-433, 426-754 and 726-1106 were cloned into pET-15b vector (Novagen) between NdeI and BamHI sites. GLI1 amino acid sequence is provided as SEQ ID NO: 2). The fragments were expressed in BL21(DE3)pLys E. coli strain overnight at 21° C. using 0.1 mM IPTG and purified using Ni-CAM™ HC resin (Sigma-Aldrich) according to the manufacturer's recommendations. The proteins were eluted by PBS and verified by Western Blot (WB).
as §1
Kinase reactions were carried out in KB in a total volume of 20 μl of in the presence of 1 μCi of [γ-^32P]ATP per reaction. We used 1 μl of the immunoprecipitated ULK3, ULK3(K44R) or ULK3(K139R) mixed with 5 μl of the GLI-M2 immunocomplexes or 5 μl of bacterially expressed and purified His-GLI1 fragments. Kinase reactions were held at 30° C. for 30 min and terminated by adding of 5 μl of 4× Laemmli Sample Buffer. Proteins were resolved by SDS-PAGE. The gel was dried at 80° C. for 2 h, and autoradiography was performed using Bio-Rad Personal Molecular Imager FX.
We also assayed whether ULK3 is able to phosphorylate GLI proteins. FLAG-tagged GLI1, GLI2 and GLI3 proteins were expressed and immunoprecipitated from HEK293 cells and used as substrates for immunopurified ULK3 in the in vitro kinase assay. ULK3 was able to phosphorylate GLI proteins but with different efficiency (FIG. 3B). […] To support these findings and identify the regions in GLI1 protein that are phosphorylated by ULK3, we used bacterially expressed His-tagged fragments of GLI1 as substrate for ULK3 kinase. Two of them—GLI1(1-433) and GLI1(726-1106)—were phosphorylated by ULK3.

The test system of another assay is GLI2. The assay is described as follows: In vitro kinase assay, phosphorylation of GLI2. Type of assay: biochemical. The following applies: FLAG-tagged GLI2 immunoprecipitated from HEK293 cells. Here is the method: as §1, §2
Setting [1] is: bacterially expressed His-tagged fragment.

B1: ULK3: human serine/threonine kinase, 472 amino acids (SEQ ID NO: 1), overexpressed from cloned cDNA or immunopurified FLAG-tagged (protein, listed as Homo sapiens)
chain: MAGPGWGPPRLDGFILTERLGSGTYATVYKAYAKKDTREVVAIKCVAKKSLNKASVENLLTEIEILKGIRHPHIVQLKDFQWDSDNIYLIMEFCAGGDLSRFIHTRRILPEKVARVFMQQLASALQFLHERNISHLDLKPQNILLSSLEKPHLKLADFGFAQHMSPWDEKHVLRGSPLYMAPEMVCQRQYDARVDLWSMGVILYEALFGQPPFASRSFSELEEKIRSNRVIELPLRPLLSRDCRDLLQRLLERDPSRRISFQDFFAHPWVDLEHMPSGESLGRATALVVQAVKKDQEGDSAAALSLYCKALDFFVPALHYEVDAQRKEAIKAKVGQYVSRAEELKAIVSSSNQALLRQGTSARDLLREMARDKPRLLAALEVASAAMAKEEAAGGEQDALDLYQHSLGELLLLLAAEPPGRRRELLHTEVQNLMARAEYLKEQVKMRESRWEADTLDKEGLSESVRSSCTLQ
modifications: PEPTIDE (1)..(472) ULK3
As for B1, the “phosphorylation of GLI3” value in the assay with GLI3 is “significantly lower intensity as compared to GLI2”. Besides, the “phosphorylation of GLI1” value in the assay with GLI1 (FLAG-tagged GLI1 immunoprecipitated from HEK293 cells) was “significantly lower intensity as compared to GLI2”. For the same molecule, in the assay on GLI1 (setting [1]), the “phosphorylation of GLI1(1-433) fragment” value is “phosphorylated”, the “phosphorylation of GLI1(726-1106) fragment” value is recorded as “phosphorylated” and the “phosphorylation of central part of GLI1 (amino acids 426-754)” value is recorded as “not phosphorylated”. For the same molecule, the “phosphorylation of GLI2” value in the assay on GLI2 was “strongest phosphorylation signal”.

Values taken from US20130040894A1, “INHIBITION OR ACTIVATION OF SERINE/THREONINE ULK3 KINASE ACTIVITY” (TALLINN UNIVERSITY OF TECHNOLOGY, priority 2009, published 2013).
